Experimental data: the DeepSol protein solubility set

Test: soluble on expression in E. coli; label from the status in PepcDB or PDB records

**Q.** For “MEKNWYVVHTYSGYENKVKANLEKRVESMGMQDKIFRVVVPEETETDVKNGKRKTTKKKVFPGYVLVEMVMTDDSWYVVRNTPGVTGFVGSSGAGSKPTPLMEEEVKMILKRMGMPLAEVDVDYEVNETVRIKEGPFANFTGKIEAIDPDKHKVKLLVDMFGRETRVELEFSQIEKI”, which “soluble on expression in E. coli” value is on record?
**A.** not soluble

**Q.** For “MKKLVTATTLTAGIGAAIVGLDHGNEADAAEQTQPTNQSTTQSTSGSSANLYTAGQCTWYVYDKVGGNIGSTWGNANNWASAASSAGYTVNNSPEAGSILQSTAGGYGHVAYVENVNSDGSVEVSEMNYNGGPFSVSERTISAGEASSYNYIHLNLEHHHHHH”, which “soluble on expression in E. coli” value is on record?
**A.** soluble

**Q.** With “MGSDKIHHHHHHVEASYAQRLRQEKGYAYADNCNTKTSLSIKMSMVLLTPTVSSNFEKDSLIYMAKKIHFISNSIVKEINNSDNVSILVLDKEEIISLFKANGILLFRGFDVDVDIFKEFTNLLSIDFINYAGGAFSRRVINGDQTVLSVNDFKSEIKLHGEMYYQKNIPLMLWFFCANPPLEDGETTVCDGRQFFHEISSSTKELFRQKNLKFTVRMSKEDWQKKYKTDDVNQLKEICRNNNTHLKIFDDRSIMLEYISPAIIPSRCGNYQVFINSLLPTKQLSPNILKFEDDSDIPEEVVSELNEIAEKITTEISWRKGDILMIDNTRILHGRRSFADDQRDIYIRLCSPAFSF” as the sequence, how does the “soluble on expression in E. coli” value read?
**A.** not soluble

**Q.** Which “soluble on expression in E. coli” value does the source give for “MGSDKIHHHHHHMIYLKIIRGFFSALREHPQSQSIPVIFVSALDETANQIQGLQGGAIDYLVKPVQPDILKLRLANLLATVNLQRDLQANYDNMLELSRLRDCVDELIHHDLKSPLSAISAMLQRLSQDKSCPKGWRSKLTAIHDLTMQSINTVNLSSEIFKIETGRFILKPERFSAHGLVKQVLHSMHVTFHHKQLIAFQFPDEDPNGQFDVLADETLTYSLLLNLIKNAFEASTMRTKVAIHLSIEQGNVVIQIENSGVVPEHIRPRFWDKYVTSQKEEGAGLGTYSACLLAKAQGGTTQLQVDDLQNKTIVTVCLPAAT” here?
**A.** not soluble

**Q.** Which “soluble on expression in E. coli” value does the source give for “MAESLLIKDIAIVTENEVIKNGYVGINDGKISTVSTERPKEPYSKEIQAPADSVLLPGMIDIHIHGGYGADTMDASFSTLDIMSSRLPEEGTTSFLATTITQEHGNISQALVNAREWKAAEESSLLGAELLGIHLEGPFVSPKRAGAQPKEWIRPSDVELFKKWQQEAGGLIKIVTLAPEEDQHFELIRHLKDESIIASMGHTDADSALLSDAAKAGASHMTHLYNAMSPFHHREPGVIGTALAHDGFVTELIADGIHSHPLAAKLAFLAKGSSKLILITDSMRAKGLKDGVYEFGGQSVTVRGRTALLSDGTLAGSILKMNEGARHMREFTNCSWTDIANITSENAAKQLGIFDRKGSVTVGKDADLVIVSSDCEVILTICRGNIAFISKEADQI” here?
**A.** soluble

**Q.** Which “soluble on expression in E. coli” value does the source give for “MGGSHHHHHHGMASALRGLEEPGPRPTATPCGCVKPALETGNLLTEPVGYLESCFSAKNGTPRQPSICSYSRACLRIRKRIFNNPEHSLMGLEQFSHVWILFVFHKNGHLSCKAKVQPPRLNGAKTGVFSTRSPHRPNAIGLTLAKLEKVEGGAIYLSGIDMIHGTPVLDIKPYIAEYDSPQNVMEPLADFNLQNNQHTPNTVSQSDSKTDSCDQRQLSGCDEPQPHHSTKRKPKCPEDRTSEENYLTHSDTARIQQAFPMHREIAVDFGLESRRDQSSSVAEEQIGPYCPEKSFSEKGTDKKLERVEGAAVLQGSRAETQPMAPHCPAGRADGAPRSVVPAWVTEAPVATLEVRFTPHAEMDLGQLSSQDVGQASFKYFQSAEEAKRAIEAVLSADPRSVYRRKLCQDRLFYFTVDIAHVTCWFGDGFAEVLRIKPASEPVHMTGPVGSLVSLGS” here?
**A.** not soluble

**Q.** Which “soluble on expression in E. coli” value does the source give for “MAHHHHHHMFRSASCILLAAKTIPINPQKPFKLHTAGRDDVPPVPTTATYDTEQMKKCLEMMFRIRRMESLCDQSYKLKKIRGFCHLYIGQEAIPVGMENVLTLEDLIVTAYRDHAWYIVRGGTPGEVFAEMFGKEGGCSKGKGGSMHMYSVKNNFFGGNGIVGAQVPIGAGLGWRFALENRDKPRNVAVTFYGDGAANQGQVFEAMNIAAIHRIPVIFCCENNQFGMGTSKERAAYQPEMYRRGDYIPGLQVDGMDVLAVQEGTRWAKEWCLSGKGPIVLEFDSYRYVGHSMSDPDSQYRKKSDIQDVRKTRDCIHKMKDFMLEEGIMTDEEMKKLEKDVKKEVDQQLQPAEKQKPTPRSELFTDIYVGEQYEHRTTQGTVYAKP” here?
**A.** not soluble

**Q.** With “MGGRSNSATTAAQQNAVLRIVVVGGGGVGKSALTIQFIQRYFVQDYDPTIEDSYTKQCFVDEDLCKLEILDTAGQEEFSTMREQYLRTGSGFLIVFAVTDRNSFEEVKKLHELICRIKDRDDFPIILVGNKADLENERHVARHEAEELAHRLSIPYLECSAKIRKNVDEAFFDIVRLVRKYQHDERMPIHPHDDRKLESPIKLKKKKNCRIQ” as the sequence, how does the “soluble on expression in E. coli” value read?
**A.** soluble

**Q.** With “AIAAQEENKRLVVVVPNEMTVPSRRAFTSEDEAWKSYLENPLTAATKAMMSINGDEDSVAALGILYDYYKVPKEKRLLPVHKLPEDHEKSRISQDGLESAENRIHVLKSLPVNLSLNPDSENKQDLFGTVPAEDGVVATVKPEVYAQSFSSHHQQLHYHRTPYHPHLQDSVSVSHDRYMKDDQCSTPDSTFEDSYPEDPMRYRVPTTPAAEDFTHEQAGLNMFQYNIEASRSVREKAADGPMVYLNKGQFYGITLSETGANKGLRHPISKVRTVVMVVFGQEKCRDEQLKHWNYWHTRQHTAKQRVLDIADYKESFNTIGNIEEIAYNAVSFTWDPAAVHKSFCASVILL” as the sequence, how does the “soluble on expression in E. coli” value read?
**A.** soluble

**Q.** For “MEEHPRAWIISVGNELLIGRTINTNAAWLGSRLTLLGFEVERVVTVPDRVEDIAEEVGRALGRARVVITTGGLGPTYDDVTLQGVAMALGRGLKLHPGALEMVRRFYSKRGLGLTEDRVKMAMLPDGAEPLENPVGAAPGAVVEARGSLVASLPGVPSEMEAMFEKALRPLLEEIAPPGAVVECGIAVVGVPESSLAPYIKEASRVSPRVYVKSHPQGSEIGKPLVR”, which “soluble on expression in E. coli” value is on record?
**A.** not soluble

**Q.** With “MSTKNRTRRTTTRNIRFPNQMIEQINIALDQKGSGNFSAWVIEACRRRLTSEKRAYTSIKSDEE” as the sequence, how does the “soluble on expression in E. coli” value read?
**A.** soluble

**Q.** With “MGSDKIHHHHHHMTVVRQTAAEQATATGRRRASFHTLTVAEVRRLTDDAIEVTFGVPAELAGQYDYLPGQYVALRTTMPDENGQPHEVRRSYSICAEPRSFADGSSEIRVAIKKDLGGLFSTWANAELKPGDQLDVMSPMGAFVSKHGRDGKAVEQNVMNSMNHPEDLVGEPGSFVAIAAGSGITPVIAIARTLLAANPETRFDLIYANKAAMDVMFLEELADLKDKYPSRLALHHVLSREQRIAPLLSGRIDAEKLQALLGTAIHADDVDEWFLCGPFELVQLCRDTLAARGVQPEHVRFELFTSGKPDRPEGNIGRPVIADESKDTYKITFKLDGLEGKVESPTHARESLLNAALRVRPDVPFACAGGVCGTCRAKVVTGAVTMDENYALEQDELDKGYVLTCQSHPTTPEVTVDFDV” as the sequence, how does the “soluble on expression in E. coli” value read?
**A.** not soluble

**Q.** For “MGSDKIHHHHHHMSQERTDGDLRNTGLSLKHDREWDYELDRIVEAVEERDAEKVGLQFPEGLKRRGPAVADDLREELPDDVTVLLSGQPCYGACDLDTYMMRRTDVFVHFGHSPMKESDKIIYVPLFSNVDVFPIMEQAREEQLADPEDDPDVGLVTTAQHMNKFDEMREWLEERGYTVHTRRGDERLTHEGQVLGCNYASADVDADQMLYVGGGKFHPLGLAMEHPEKHVVIADPVNNVVTVADTEKFMKQRYGAVHRAMDAESWGVIFCTKIGQGRWDQAEEIVENNENAYLITMDEVTPDRLTNFGMDAYVNTGCPRITTDDGPQFKKPMLTPGEYEIAIGEKPLDSLEFDTFHGTW”, which “soluble on expression in E. coli” value is on record?
**A.** not soluble

**Q.** Which “soluble on expression in E. coli” value does the source give for “MNRNKWQRVPAPNTRGAKMHGWVREMDEAYREVNGEYAVLVRTLNTKLGTVKHAAIRNATETDITWSEKQRIKNEIFGEEKQAIEFFPKQSELIDEANMYHLWILEDCELEFGIYE” here?
**A.** not soluble

**Q.** Which “soluble on expression in E. coli” value does the source give for “GSHMAAQSGNDAAEVALYERLLQLRVLPGASDVHDVRFVFGDDSRCWIEVAMHGDHVIGNSHPALDPKSRATLEHVLTVQGDLAAFLVVARDMLLASL” here?
**A.** soluble

**Q.** With “MKLDFSSGAKPLWSQMANIIKKRIEDGEYEIGCTLPSEMSFADEFNVSRITVRQALNRLMTDGYILRQRGKGTIVKRDKTSFSTRMQSSFKQLQDEYDKTTKTLISVNNVKASEDVAEVFDINPGDNVIMLERSVESKGKIITIYHNYISPKVGASLKDDFTGSFYKYLEMKGFYITSAKEVISAKISTAKDKEVFGFSNDRAMLLKTKYGYSDGVPVEITYGTYIADDYNIVIELV” as the sequence, how does the “soluble on expression in E. coli” value read?
**A.** not soluble

**Q.** For “MNTAAGRKEDIRIPPRVAPDLNAPRVLVLNASYEPLQVTSIKRAITLLQYGVAEVLEQSRDVVRSPSTVMSVPSVIRLRRYVRRPRVGAVPFNRRNVLRRDHFTCQYCGSQDDLTMDHVHPRSRGGKHGWDNVVTACRTCNQRKGNLTPEEAGMPLHVPPHAPTFGVYAHGQFAHWQPEWSGYIRGLEHHHHHH”, which “soluble on expression in E. coli” value is on record?
**A.** not soluble

**Q.** With “SNAMTSLEEITKAIMADSQNKVFTEKNIEPLFAAPKTARINIVGQAPGIKAQESRLYWNDKSGDRLREWMGVDYDTFYHSGYFAVIPMDFYYPGKGKSGDLPPRKGFAQKWHQPILDLLPDIQLTILIGNYAQKYYLHQKSSVKLTDTVAHYKKYLPDYFPLVHPSPRNQIWMSRHPWFEAQVVPDLKKIIQQIIQSS” as the sequence, how does the “soluble on expression in E. coli” value read?
**A.** soluble

**Q.** Which “soluble on expression in E. coli” value does the source give for “GSFTMSYCRQEGKDRIIFVTKEDHETPSSAELVADDPNDPYEEHGLILPNGNINWNCPCLGGMASGPCGEQFKSAFSCFHYSTEEIKGSDCVDQFRAMQECMQKYPDLYPQEDEDEEEEREKKPAEQAEETAPIEATATKEEEGSS” here?
**A.** soluble

**Q.** For “MNIQKAHDVAPPEWLAQVREPALCPGQIIVDPHHHLWDRQGQLYLLPQFLEDQAGDHRIVSTVYVQGRAMYRAGAHALAPVGETEFARGVAAMCASGRYGETRVCDGIVAHADLTQGDGVERVLQAHVEAGGRHFKGIRHMATWDADPALMNPDVAPPPHLLGETRFRRGFAVLDRMGLVFDAWVFHPQLADVVALASAFPDTTIVLNHLGGILNTGSYAGRREAIRADWLASLRELATCPNVYLKLGGLGMRISGFDYPSRPRPPNSTELAADFAPYMLPAIDLFGPERCMFESNFPVDKRSYTYGVLWNAFKRLAADMSQAERDHLFYQTAAKAYRLNLDHIAADMAGDPLEHHHHHH”, which “soluble on expression in E. coli” value is on record?
**A.** not soluble

**Q.** With “MSTIDFRPYGGFIFDMDGTLIDTMPAHLAAWQATADRFDFPFCQEWLHSLGGMPSFKIVAELNRHYGLSLDPQTVSKFKMETFAAMELQGDVIQCTGIVLEEYLGQKKIAVGTGSQRESAMRLLSHAGLIDRLDAVVTASDVENHKPCPDTFLLAADRLGIDAQNCLVFEDTELGKRAAHSAGMDCVMVEGNNLVFYPKR” as the sequence, how does the “soluble on expression in E. coli” value read?
**A.** not soluble

**Q.** For “MGSDKIHHHHHHMWFRNLLVYRLTQDLQLDADSLEKALGEKSARPCASQELTTYGFTAPFGKGPDAPLVHVSQDFFLISARKEERILPGSVVRDALKEKVDEIEAQQMRKVYKKERDQLKDEIVQTLLPRAFIRRSSTFAAIAPSLGLILVDSASAKKAEDLLSTLREALGSLPVRPLSVKVAPTATLTDWVKTQEAAGDFHVLDECELRDTHEDGGVVRCKRQDLTSEEIQLHLTAGKLVTQLSLAWSDKLSFVLDDKLAVKRLRFEDLLQEQAEKDGGEDALGQLDASFTLMMLTFAEFLPALFEALGGEEIPQGV”, which “soluble on expression in E. coli” value is on record?
**A.** not soluble

**Q.** Which “soluble on expression in E. coli” value does the source give for “MKIVAIGAIPFSIPYTKPLRFASGEVHAAEHVLVRVHTDDGIVGVAEAPPRPFTYGETQTGIVAVIEQYFAPALIGLTLTEREVAHTRMARTVGNPTAKAAIDMAMWDALGQSLRLSVSEMLGGYTDRMRVSHMLGFDDPVKMVAEAERIRETYGINTFKVKVGRRPVQLDTAVVRALRERFGDAIELYVDGNRGWSAAESLRAMREMADLDLLFAEELCPADDVLSRRRLVGQLDMPFIADESVPTPADVTREVLGGSATAISIKTARTGFTGSTRVHHLAEGLGLDMVMGNQIDGQIGTACTVSFGTAFERTSRHAGELSNFLDMSDDLLTVPLQISDGQLHRRPGPGLGIEIDPDKLAHYRTDN” here?
**A.** soluble
